Starred links: 1 amine or outer side, 2 acyl side, 3 side chain; linkers in the order of their positions; H or OH if unused. Non-standard residues stand in square brackets, D forms with d. Groups on a side chain read outwards from the residue. *: point of attachment. γGlu = O=C(O)[C@H](CCC(=O)[*:2])N[*:1]; Palmitoyl = CCCCCCCCCCCCCCCC(=O)*; hSer = N[C@@H](CCO)C(=O)O; Aib = CC(C)(N)C(=O)O
How the values were obtained:
[1] = molecular target: human glucagon-like peptide 1 receptor (GLP-1R) (human, UniProt P43220); assay: cell-based or functional assay
[2] = molecular target: human glucagon receptor (glucagon-R) (human, UniProt P47871); assay: cell-based or functional assay

Row | EC50 (nM) GLP-1R, cAMP formation [1] | EC50 (nM) GluR, cAMP formation [2] | Binder
1 | 0.05 nM | 0.79 nM | H-H[Aib][hSer]GTFTSDYSKYLDSK([γGlu-Palmitoyl])AAHDFVEWLLSA-NH2 [Compound 29]
2 | 0.09 nM | 0.15 nM | H-H[Aib]HGTFTSDYSKYLESK([γGlu-Palmitoyl])AAEEFVEWLLEA-NH2 (SMILES CCCCCCCCCCCCCCCC(=O)N[C@@H](CCC(=O)NCCCC[C@H](NC(=O)[C@H](CO)NC(=O)[C@H](CCC(=O)O)NC(=O)[C@H](CC(C)C)NC(=O)[C@H](Cc1ccc(O)cc1)NC(=O)[C@H](CCCCN)NC(=O)[C@H](CO)NC(=O)[C@H](Cc1ccc(O)cc1)NC(=O)[C@H](CC(=O)O)NC(=O)[C@H](CO)NC(=O)[C@@H](NC(=O)[C@H](Cc1ccccc1)NC(=O)[C@@H](NC(=O)CNC(=O)[C@H](Cc1c[nH]cn1)NC(=O)C(C)(C)NC(=O)[C@@H](N)Cc1c[nH]cn1)[C@@H](C)O)[C@@H](C)O)C(=O)N[C@@H](C)C(=O)N[C@@H](C)C(=O)N[C@@H](CCC(=O)O)C(=O)N[C@@H](CCC(=O)O)C(=O)N[C@@H](Cc1ccccc1)C(=O)N[C@H](C(=O)N[C@@H](CCC(=O)O)C(=O)N[C@@H](Cc1c[nH]c2ccccc12)C(=O)N[C@@H](CC(C)C)C(=O)N[C@@H](CC(C)C)C(=O)N[C@@H](CCC(=O)O)C(=O)N[C@@H](C)C(N)=O)C(C)C)C(=O)O) [Compound 31]

Reference: patent US20130157929A1, “GLUCAGON ANALOGUES” (ZEALAND PHARMA A/S, published 2013)
